The source of these data is publication PMC2827208.

Experiment [1] addresses R838S RetGC1 (human) (UniProt Q02846). In words: co-localisation of GCAP1-GFP with RetGC1 in co-transfected cells.
In experiment [2] the target is wild type recombinant human RetGC1 (human) (UniProt Q02846). The description is as above.
Experiment [3] addresses dsRed-tagged RetGC1 (human) (UniProt Q02846). The experiment is described as follows: ratio of GFP and dsRed tag fluorescence in co-transfected cells.

As a reminder, the stoichiometry N is a count of units in the complex or per binding partner.

As to “GFP-tagged bovine GCAP1 (from UniProt P46065 1-205) (natural protein)”, the figures for the cell:nucleus GCAP1-GFP fluorescence intensity ratio in experiment [1] and in experiment [2] were 9.3 and 10.6, respectively. Moreover, the stoichiometry N (GCAP1 per RetGC1) in experiment [3] came out at 0.86. Further, in experiment [3] (scale: molar ratio between the two proteins at saturation), the stoichiometry N came to 1.01.
